B1: 7D6 monoclonal antibody (antibody, V domains shown)
VH: EVQLQQSGAELVRPGASVKLSCTASGFNIKDTYIHWVKQRPEQGLEWIGRIDPGDGDTEYDPSFQGKATITADTSSNTAYLELSSLTSEDTAVYYCTRFYDYVDYGMDYWGQGTSVTVSS
VL: DIQMTQSPASLSASVGETVTITCRASGNIHNYLAWYQQKQGKSPQLLVYNAKTLADGVPSRFSGSGSGTQYSLKINSLQPEDFGSYYCQHFWSTPPWTFGGGTKLEVK
notes: also called mAb 7D6; source: mouse hybridoma, ascites, purified (protein A agarose); copies: 2 + 2
B2: 6D6 monoclonal antibody (antibody, V domains shown)
VH: EVQLQQSGAELVKPGASVKLSCTTSGFNIIDTYMHWVKQRPEEGLEWIGGIDPVNGNSEYDPKFQDKATITADTSSNTAYLHLSRLTSEDTAVYYCASAHYYGSSSSFPYWGQGTLVTVSA
VL: DIVMTQSQKFMSTSVGDRVSVTCKASQNVGTHVAWYQQKPGQSPKALIYSASYRYSGVPDRFTGSGVGTDFTLTITNVQSEDLAEYFCQQYNSYFTFGSGTKLEIK
notes: also called mAb 6D6; source: mouse hybridoma, ascites, purified (protein A agarose); copies: 2 + 2

Columns and labels:
[1] = target: T1, SARS-CoV two-proline stabilized S trimer (S-2P) (SARS-CoV (GenBank NC_004718.3), UniProt P59594, stabilised); experiment: SPR; conditions: both partners purified
T1 construct: also called SARS-CoV S-2P

[2] = target: T1, SARS-CoV two-proline stabilized S …; experiment: SPR; conditions: both partners purified; remark: listed apart in the source

Binder	Kd [1] [nM]	Kd [2] [nM]	koff [2] [s⁻¹]	kon [2] [M⁻¹ s⁻¹]
B1	5.88	5.04	0.000241	47800
B2	–	2.14	5.56e-05	30600

From paper PMC8476643 (Nature Communications, 2021)
